Measurements as given in article PMC4335062, “Data-Driven Prediction and Design of bZIP Coiled-Coil Interactions” (PLoS Computational Biology, 2015).
Values joined by “and” are separate entries in the source; they are usually repeats but may differ in a detail not shown here. Equal entries are not always repeated. Where no end group is shown, it is not given here.

Columns and labels:
[1] = molecular target: T1, X-box binding protein 1 (XBP1) bZIP construct, C-terminally fluoresceinated (human, UniProt P17861 70-133, fluorescein at the C-terminus); assay: FRET or BRET; direct-binding FRET at 37°C; 10 nM fluorescein-labelled bZIP (donor), rhodamine-labelled design (acceptor) titrated 0 to 1 μM; 150 mM KCl, 50 mM potassium phosphate pH 7.4, 0.1% Tween-20, 0.1% BSA; settings: both partners purified
T1 construct: source: previously described, donated by A.W. Reinke [18]
T1 sequence (looked up): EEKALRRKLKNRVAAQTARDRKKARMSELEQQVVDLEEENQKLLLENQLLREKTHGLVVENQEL

[2] = molecular target: off-target bZIPs of XBP1-d1 (among the 32 C-terminally fluoresceinated human bZIPs tested) (human); assay: as above
[3] = molecular target: MAFF (human) (UniProt Q9ULX9); assay: FRET or BRET; direct-binding FRET in 384-well plates; rhodamine-labelled design (acceptor) titrated 0 to 1 uM into 10 nM fluorescein-labelled bZIP (donor); 150 mM KCl, 50 mM potassium phosphate pH 7.4, 0.1% Tween-20, 0.1% BSA; 23 °C
[4] = molecular target: ATF4 (human) (UniProt P18848); assay: as above
[5] = molecular target: T2, ATF6B (Homo sapiens, UniProt Q99941); assay: as above
[6] = molecular target: T3, MAF (Homo sapiens, UniProt O75444); assay: as above
[7] = molecular target: MAFF (human) (UniProt Q9ULX9); assay: FRET or BRET; direct-binding FRET in 384-well plates; rhodamine-labelled design (acceptor) titrated 0 to 1 uM into 10 nM fluorescein-labelled bZIP (donor); 150 mM KCl, 50 mM potassium phosphate pH 7.4, 0.1% Tween-20, 0.1% BSA; 37 °C
[8] = molecular target: T4, FOS (Homo sapiens, UniProt P01100); assay: as above
[9] = molecular target: BATF (human) (UniProt Q16520); assay: as above
[10] = molecular target: T5, MAFB (Homo sapiens, UniProt Q9Y5Q3); assay: as above
[11] = molecular target: BATF2 (human) (UniProt Q8N1L9); assay: as above
[12] = molecular target: MAFF (human) (UniProt Q9ULX9); assay: FRET or BRET; direct-binding FRET in 384-well plates; rhodamine-labelled design (acceptor) titrated 0 to 1 uM into 10 nM fluorescein-labelled bZIP (donor); 150 mM KCl, 50 mM potassium phosphate pH 7.4, 0.1% Tween-20, 0.1% BSA; 4 °C
[13] = molecular target: ATF5 (human) (UniProt Q9Y2D1); assay: as above
[14] = molecular target: X-box binding protein 1 (human) (UniProt P17861); assay: as above
[15] = molecular target: T6, JUN (Homo sapiens, UniProt P05412); assay: as above
[16] = molecular target: T2, ATF6B; assay: as above
[17] = molecular target: T5, MAFB; assay: as above
[18] = molecular target: T3, MAF; assay: as above
[19] = molecular target: ATF2 (human) (UniProt P15336); assay: as above
[20] = molecular target: T6, JUN; assay: FRET or BRET; direct-binding FRET in 384-well plates; rhodamine-labelled design (acceptor) titrated 0 to 1 uM into 10 nM fluorescein-labelled bZIP (donor); 150 mM KCl, 50 mM potassium phosphate pH 7.4, 0.1% Tween-20, 0.1% BSA; 23 °C
[21] = molecular target: CREB1 (human) (UniProt P16220); assay: FRET or BRET; direct-binding FRET in 384-well plates; rhodamine-labelled design (acceptor) titrated 0 to 1 uM into 10 nM fluorescein-labelled bZIP (donor); 150 mM KCl, 50 mM potassium phosphate pH 7.4, 0.1% Tween-20, 0.1% BSA; 37 °C
[22] = molecular target: MAFG (Homo sapiens, UniProt O15525); assay: as above
[23] = molecular target: X-box binding protein 1 (human) (UniProt P17861); assay: as above
[24] = molecular target: NFE2 (human) (UniProt Q16621); assay: as above
[25] = molecular target: NFE2L3 (human) (UniProt Q9Y4A8); assay: as above
[26] = molecular target: T2, ATF6B; assay: as above
[27] = molecular target: Activating Transcription Factor (ATF) 3 (human) (UniProt P18847); assay: as above
[28] = molecular target: T4, FOS; assay: FRET or BRET; direct-binding FRET in 384-well plates; rhodamine-labelled design (acceptor) titrated 0 to 1 uM into 10 nM fluorescein-labelled bZIP (donor); 150 mM KCl, 50 mM potassium phosphate pH 7.4, 0.1% Tween-20, 0.1% BSA; 4 °C
[29] = molecular target: DBP (human) (UniProt Q10586); assay: as above
[30] = molecular target: Activating Transcription Factor (ATF) 3 (human) (UniProt P18847); assay: as above
[31] = molecular target: T6, JUN; assay: FRET or BRET; direct-binding FRET in 384-well plates; rhodamine-labelled design (acceptor) titrated 0 to 1 uM into 10 nM fluorescein-labelled bZIP (donor); 150 mM KCl, 50 mM potassium phosphate pH 7.4, 0.1% Tween-20, 0.1% BSA; 37 °C
[32] = molecular target: ATF4 (human) (UniProt P18848); assay: as above

T2 sequence (Q99941 whole entry): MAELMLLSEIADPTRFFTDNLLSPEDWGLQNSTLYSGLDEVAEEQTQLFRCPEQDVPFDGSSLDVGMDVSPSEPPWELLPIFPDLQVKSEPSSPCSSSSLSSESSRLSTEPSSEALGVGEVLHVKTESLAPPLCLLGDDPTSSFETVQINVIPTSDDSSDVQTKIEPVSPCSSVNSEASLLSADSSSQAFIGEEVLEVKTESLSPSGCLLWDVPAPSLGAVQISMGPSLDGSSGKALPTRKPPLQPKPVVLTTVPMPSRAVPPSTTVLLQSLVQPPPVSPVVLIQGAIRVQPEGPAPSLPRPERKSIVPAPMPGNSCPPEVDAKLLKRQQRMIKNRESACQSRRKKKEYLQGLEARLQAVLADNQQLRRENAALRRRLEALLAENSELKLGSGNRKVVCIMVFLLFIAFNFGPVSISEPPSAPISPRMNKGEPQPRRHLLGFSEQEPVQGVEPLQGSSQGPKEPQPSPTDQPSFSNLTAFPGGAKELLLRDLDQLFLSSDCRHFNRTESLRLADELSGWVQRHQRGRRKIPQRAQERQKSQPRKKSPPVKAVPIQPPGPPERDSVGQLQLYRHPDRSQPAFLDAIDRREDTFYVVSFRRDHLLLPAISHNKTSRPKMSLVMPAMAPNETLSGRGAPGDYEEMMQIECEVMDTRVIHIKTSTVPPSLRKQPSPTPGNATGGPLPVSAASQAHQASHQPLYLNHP
ATF4 (human), sequence (P18848 whole entry): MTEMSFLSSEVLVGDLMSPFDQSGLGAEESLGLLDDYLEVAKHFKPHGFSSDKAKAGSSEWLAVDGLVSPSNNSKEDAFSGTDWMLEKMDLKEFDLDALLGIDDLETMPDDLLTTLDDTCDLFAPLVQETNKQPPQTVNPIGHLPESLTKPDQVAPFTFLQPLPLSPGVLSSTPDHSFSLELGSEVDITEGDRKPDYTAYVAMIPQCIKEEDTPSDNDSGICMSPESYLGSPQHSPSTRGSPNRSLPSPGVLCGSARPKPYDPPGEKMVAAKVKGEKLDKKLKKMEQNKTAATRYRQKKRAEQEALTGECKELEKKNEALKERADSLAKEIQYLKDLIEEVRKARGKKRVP
MAFF (human), sequence (Q9ULX9 whole entry): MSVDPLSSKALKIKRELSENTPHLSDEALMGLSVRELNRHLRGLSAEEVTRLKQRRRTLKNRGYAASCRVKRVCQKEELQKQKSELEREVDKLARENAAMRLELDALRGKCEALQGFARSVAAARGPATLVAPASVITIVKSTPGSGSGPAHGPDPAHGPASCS
T4 sequence (P01100 whole entry): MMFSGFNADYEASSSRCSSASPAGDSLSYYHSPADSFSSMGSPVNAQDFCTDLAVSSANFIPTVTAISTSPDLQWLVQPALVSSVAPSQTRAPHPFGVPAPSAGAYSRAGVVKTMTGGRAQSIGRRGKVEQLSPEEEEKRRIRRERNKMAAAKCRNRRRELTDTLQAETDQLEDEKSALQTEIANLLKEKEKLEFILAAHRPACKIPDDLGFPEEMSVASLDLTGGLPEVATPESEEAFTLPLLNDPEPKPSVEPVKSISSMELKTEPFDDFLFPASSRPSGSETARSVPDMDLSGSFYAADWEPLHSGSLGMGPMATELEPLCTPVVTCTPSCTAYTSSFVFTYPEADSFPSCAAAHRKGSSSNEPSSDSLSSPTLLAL
T6 sequence (P05412 whole entry): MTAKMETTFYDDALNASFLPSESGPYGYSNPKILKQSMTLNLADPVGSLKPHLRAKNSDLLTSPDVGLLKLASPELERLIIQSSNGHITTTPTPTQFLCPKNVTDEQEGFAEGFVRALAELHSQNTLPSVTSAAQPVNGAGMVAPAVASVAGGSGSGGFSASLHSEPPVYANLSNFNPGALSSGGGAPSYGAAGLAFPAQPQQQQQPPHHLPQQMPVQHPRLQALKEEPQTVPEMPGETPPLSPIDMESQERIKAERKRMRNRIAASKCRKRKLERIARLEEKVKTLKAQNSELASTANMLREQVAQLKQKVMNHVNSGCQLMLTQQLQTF
Activating Transcription Factor (ATF) 3 (human), sequence (P18847 whole entry): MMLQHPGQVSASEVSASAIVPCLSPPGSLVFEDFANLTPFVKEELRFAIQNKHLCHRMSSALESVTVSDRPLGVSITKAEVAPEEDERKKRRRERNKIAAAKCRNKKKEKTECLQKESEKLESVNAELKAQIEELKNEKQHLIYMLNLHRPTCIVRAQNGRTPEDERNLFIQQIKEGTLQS
ATF5 (human), sequence (Q9Y2D1 whole entry): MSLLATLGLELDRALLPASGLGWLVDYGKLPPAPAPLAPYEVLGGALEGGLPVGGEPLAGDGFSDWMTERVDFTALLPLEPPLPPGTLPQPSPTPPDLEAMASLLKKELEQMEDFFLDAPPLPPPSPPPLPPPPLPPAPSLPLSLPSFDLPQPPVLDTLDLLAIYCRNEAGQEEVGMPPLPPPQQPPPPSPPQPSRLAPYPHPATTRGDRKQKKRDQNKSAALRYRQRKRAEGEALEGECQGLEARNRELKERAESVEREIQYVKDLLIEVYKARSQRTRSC
X-box binding protein 1 (human), sequence (P17861 whole entry): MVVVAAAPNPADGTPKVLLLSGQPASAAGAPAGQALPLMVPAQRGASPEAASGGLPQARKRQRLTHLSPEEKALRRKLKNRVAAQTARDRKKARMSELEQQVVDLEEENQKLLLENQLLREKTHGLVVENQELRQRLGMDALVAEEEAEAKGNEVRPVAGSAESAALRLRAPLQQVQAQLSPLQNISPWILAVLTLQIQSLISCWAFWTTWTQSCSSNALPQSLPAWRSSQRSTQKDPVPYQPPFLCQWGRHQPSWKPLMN
T5 sequence (Q9Y5Q3 whole entry): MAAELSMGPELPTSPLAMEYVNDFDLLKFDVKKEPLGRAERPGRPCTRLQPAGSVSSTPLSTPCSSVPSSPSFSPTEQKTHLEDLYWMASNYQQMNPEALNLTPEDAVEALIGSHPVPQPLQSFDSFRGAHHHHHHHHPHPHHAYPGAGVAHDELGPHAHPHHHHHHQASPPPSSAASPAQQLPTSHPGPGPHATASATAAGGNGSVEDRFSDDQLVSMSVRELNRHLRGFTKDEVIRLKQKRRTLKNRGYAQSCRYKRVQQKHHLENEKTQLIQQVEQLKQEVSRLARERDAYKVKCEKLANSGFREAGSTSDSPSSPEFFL
T3 sequence (O75444 whole entry): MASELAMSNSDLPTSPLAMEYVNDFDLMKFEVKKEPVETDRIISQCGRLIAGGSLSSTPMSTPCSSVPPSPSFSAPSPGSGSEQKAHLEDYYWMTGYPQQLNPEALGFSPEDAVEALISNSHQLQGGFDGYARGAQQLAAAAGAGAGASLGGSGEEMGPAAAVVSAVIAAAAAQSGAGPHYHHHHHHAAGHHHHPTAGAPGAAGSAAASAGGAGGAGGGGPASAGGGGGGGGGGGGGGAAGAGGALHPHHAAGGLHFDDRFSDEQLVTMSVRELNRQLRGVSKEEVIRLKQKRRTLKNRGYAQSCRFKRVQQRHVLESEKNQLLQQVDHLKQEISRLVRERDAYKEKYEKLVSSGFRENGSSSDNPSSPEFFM
NFE2 (human), sequence (Q16621 whole entry): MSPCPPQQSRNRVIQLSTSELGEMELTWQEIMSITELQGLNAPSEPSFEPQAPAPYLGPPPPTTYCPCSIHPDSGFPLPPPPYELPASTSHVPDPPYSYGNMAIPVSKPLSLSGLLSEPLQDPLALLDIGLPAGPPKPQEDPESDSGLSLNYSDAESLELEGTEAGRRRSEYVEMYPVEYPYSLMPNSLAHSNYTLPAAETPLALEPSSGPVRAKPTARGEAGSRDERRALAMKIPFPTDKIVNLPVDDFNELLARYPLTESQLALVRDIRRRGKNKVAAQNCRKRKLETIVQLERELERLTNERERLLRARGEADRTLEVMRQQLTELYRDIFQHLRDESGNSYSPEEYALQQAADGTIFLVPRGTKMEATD
CREB1 (human), sequence (P16220 whole entry): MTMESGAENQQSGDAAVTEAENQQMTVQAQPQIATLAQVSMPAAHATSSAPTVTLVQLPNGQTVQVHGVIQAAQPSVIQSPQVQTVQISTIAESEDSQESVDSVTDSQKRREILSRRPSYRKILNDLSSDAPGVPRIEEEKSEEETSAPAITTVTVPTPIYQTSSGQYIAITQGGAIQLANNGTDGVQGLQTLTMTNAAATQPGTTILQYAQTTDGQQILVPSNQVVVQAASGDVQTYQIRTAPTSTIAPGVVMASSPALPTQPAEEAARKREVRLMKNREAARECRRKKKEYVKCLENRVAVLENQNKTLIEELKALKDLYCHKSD
MAFG, sequence (O15525 whole entry): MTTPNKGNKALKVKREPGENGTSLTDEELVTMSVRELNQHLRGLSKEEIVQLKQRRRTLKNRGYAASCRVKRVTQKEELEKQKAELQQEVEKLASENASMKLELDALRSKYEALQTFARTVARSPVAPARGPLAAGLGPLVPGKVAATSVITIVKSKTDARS
BATF (human), sequence (Q16520 whole entry): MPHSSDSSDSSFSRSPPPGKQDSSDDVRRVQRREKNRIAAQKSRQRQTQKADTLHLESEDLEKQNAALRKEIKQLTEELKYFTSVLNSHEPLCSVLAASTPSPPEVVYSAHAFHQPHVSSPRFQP
DBP (human), sequence (Q10586 whole entry): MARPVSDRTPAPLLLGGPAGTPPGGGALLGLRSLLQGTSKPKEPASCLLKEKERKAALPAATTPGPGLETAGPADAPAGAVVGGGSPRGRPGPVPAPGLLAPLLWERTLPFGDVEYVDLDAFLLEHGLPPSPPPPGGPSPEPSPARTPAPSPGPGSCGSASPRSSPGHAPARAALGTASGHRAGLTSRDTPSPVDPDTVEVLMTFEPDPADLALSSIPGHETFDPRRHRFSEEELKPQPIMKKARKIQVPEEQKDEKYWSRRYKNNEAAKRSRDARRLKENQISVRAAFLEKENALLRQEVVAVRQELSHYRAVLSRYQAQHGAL

B1: XBP1-d1, rhodamine-labelled at the C-terminus (designed binder)
chain: GESKEYKKGSGSEREAQLENRVAHLKEKNQELKAQNLHLKEALSEAQNRNQELKNDAGC(Rhodamine Red C2‑maleimide)
notes: solubility linker after the His tag; added at the C-terminus for labelling; built from heptads of native and previously designed bZIPs; source: E. coli RP3098, purified (Ni-NTA under denaturing conditions, reverse-phase HPLC)
B1 gave a Kd [1] of 172 ± 65 nM and a Kd [2] of over 5000 nM.

B2: ATF5-d1 labeled at the N-terminus (designed binder)
chain: GESKEYKKGSGSC(Rhodamine Red C2‑maleimide)GKRIAYLRQRIAELRNENHVLESRIQRMEKEKDALQQDRDHLEYEL
With B2 the Kd [3] was over 5000 nM, the Kd [4] was 8.5 nM and the Kd [5] was over 5000 nM. The Kd [6] was over 5000 nM, the Kd [7] was 116 nM and the Kd [8] was over 5000 nM. The Kd [9] was over 5000 nM, the Kd [10] was over 5000 nM and the Kd [11] was over 5000 nM. The Kd [12] was over 5000 nM, the Kd [13] was 2.9 nM and 6.9 nM and the Kd [14] was over 5000 nM. The Kd [15] was over 5000 nM, the Kd [16] was over 5000 nM and the Kd [17] was over 5000 nM. For the same binder, the Kd [18] was over 5000 nM and the Kd [19] was over 5000 nM.

B3: JUN-d1 labeled at the C-terminus (designed binder)
chain: GESKEYKKGSGSSIAATLEKEEANLEKMNKKLAAEIESLLKEKDKLESVLNYHEGC
modifications: also: Cys56: Rhodamine Red C2-maleimide or fluorescein-5-maleimide, by assay
With B3 the Kd [20] was 1.1 nM and 1.2 nM and 1 nM, the Kd [7] was over 5000 nM and the Kd [21] was over 5000 nM. It also gave a Kd [22] of over 5000 nM, a Kd [8] of over 5000 nM and a Kd [23] of over 5000 nM. For the same binder, the Kd [24] was over 5000 nM, the Kd [25] was over 5000 nM and the Kd [26] was over 5000 nM. It also gave a Kd [27] of over 5000 nM, a Kd [28] of over 5000 nM and a Kd [29] of over 5000 nM. The Kd [30] was over 5000 nM, the Kd [31] was 5.3 nM and 5.5 nM and 6.6 nM and the Kd [32] was 557 nM and 529 nM and 543 nM.
